Measured values: PMC4874493

How the values were obtained:
[1] = molecular target: APOBEC3A E72Q (human, UniProt P31941 1-199, E72Q); assay: fluorescence anisotropy
[2] = molecular target: APOBEC3A E72A/C171A (human, UniProt P31941 1-199, E72A;C171A); assay: fluorescence anisotropy
APOBEC3A E72A/C171A, sequence (P31941 whole entry E72A/C171A): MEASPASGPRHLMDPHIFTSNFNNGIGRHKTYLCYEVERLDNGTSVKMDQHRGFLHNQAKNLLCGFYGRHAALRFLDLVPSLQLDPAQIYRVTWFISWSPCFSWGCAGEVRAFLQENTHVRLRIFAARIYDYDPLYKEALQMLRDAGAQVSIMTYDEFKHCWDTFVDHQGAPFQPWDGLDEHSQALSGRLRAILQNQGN

APOBEC3A E72Q, sequence (P31941 whole entry E72Q): as the sequence (P31941 whole entry E72A/C171A) above, with A72Q, A171C counted along it

Which results are given for TTTTTTTTTTTTTTT (ssDNA) [polyT (TTT)]?
Kd [1]: 205 ± 20 nM; Kd [2]: 502 ± 27 nM
